Target: T1, 6E peptide (14-mer peptide derived from UBC6e, with N-terminal triglycine motif) (Homo sapiens, UniProt Q9Y385)
T1 chain: QADQEAKELARQIS
Assay: SPR

binding result: binds
B1: Nb6E labeled with biotin (Nb6E-biotin) (VHH)
VHH: QVQLQESGGGLVQPGGSLRLSCAASGFVFENSAMAWYRQAPGKERELIAVIGTTFIKLAESVKGRFTISRDNAKSTVYLQMNNLKPEDTAVYYCSKSGAYWGQGTQVTVSS

— paper PMC10200313 (ACS chemical biology, 2022)
